# Experimental data reported in the RNAGym collection of RNA variant scans (doi:10.1021/acssynbio.7b00057).
# B1: Pistol ribozyme (parent)
# chain: GGGUCGUUGUUCCAUAAUCGCGUGGAUAUGGCACGCAAGUUUCUACCGGGCACCGUAAAUGUCCGACUGGAGCCGUUCGGGCGGCUAUAAACAGACCUCAGGCCCGAAGCGUGGCGGCACCUGCCGCCGGUGGUAAAAAAGAUCGGAAGAGCACACGUCU
# Variants of: B1
# Assay: aptazyme ON/OFF ratio, guanine; higher = stronger switching; co-transcriptional cleavage with and without guanine
row,Variant,aptazyme ON/OFF ratio
1,U7A U8C G9A U10C U11A C13A,1.18
2,U7C G9C U10G U11G C12A C13G,1.12
3,U8G G9C C12U C13A,1.05
4,U8C G9C U10G U11C C12U,1.05
5,G9U U10C U11A C12U C13U,1.54
6,U7G G9U U10A C12A,1.65
7,U8A G9A U10A C12A C13G,1.17
8,U7C U8A G9U U10C C12G,1.22
9,U7C U8C G9A U10A C12U,1.69
10,U7A U8C G9A U10C U11G C12G C13U,1.1
11,U7C U8G G9A U11A C12G C13G,1.11
12,U7C U8G G9U U10G C12U,1.12
13,U8G G9U U10G U11C C13U,1.03
14,U7C U8A G9A U10C U11G C12G C13U,1.11
15,U7A U8C G9A U11A C12U,1.25
16,U7G U10G U11G C13G,1.18
17,U8G G9C U10A U11A,1.18
18,U7C G9A U10G U11G,1.09
19,U7A U8G G9C U10G U11G C12U C13U,1.48
20,U8C G9U U10G U11A C12U,1.04
21,U8G U10G U11A C12U,1.38

row,Variant,aptazyme ON/OFF ratio
1,U7G U8C U11A C12A C13U,1.25
2,U7C U8G G9A C12G C13U,1.21
3,U7G U10C U11A C13U,1.16
4,U7A U8A G9A C12G,1.4
5,U8A G9C U10G U11A,1.03
6,U7G U8A G9A C12A C13G,1.11
7,U10G U11A C12U,1.15
8,U7G U8A U10A U11C C13U,1
9,U7G U8A U10A U11C C13A,1.03
10,U7A U10C U11G C12A C13A,1.28
11,U7C U8G G9A U10G U11C C12U,1.14
12,U7G U8C G9A U10C C12U C13A,1.15
13,U8C G9U U10G U11A C12G C13A,1.16
14,U8A G9A U11G C12U C13G,1.18
15,U7C U8G G9A U10A U11C C12G,1.25
16,U7C U8C U11A C12A C13U,1.31
17,U7G G9A U10G U11G C13G,1.09
18,U7G U8G G9C U10G U11G C12G,1.15
19,U7A U8C G9A U10C U11C C12A C13G,1.09
20,U8A G9U U11G C12A C13A,1.11
21,U7C G9C U10G U11G C13A,1.1

row,Variant,aptazyme ON/OFF ratio
1,U7G U8G U10G U11G C12G C13A,1.42
2,U7C U8C C12G C13A,1.12
3,U7C G9U U10C U11C C12A C13A,1.04
4,U8C U10G U11G C12U C13G,1.12
5,U7A U8G U11C C12A C13U,1.19
6,G9A U10A C12G C13U,1.57
7,U8A G9U U10A U11A C12U,1.32
8,U7C U10C U11A C12A C13A,1.49
9,U7C U8C G9U U10C C12A C13G,1.09
10,G9A U10C C12U C13A,1.38
11,U7A U10A U11G C13G,1.3
12,G9C U10A U11A C12G,1.5
13,U7A U8C U10A U11A C12U C13A,1.18
14,U7A U8A G9U U10A U11A C12A C13G,1.2
15,U7A U8G G9A U10A U11C C12U C13G,1.17
16,U7C U8C G9A U11C C12G C13U,1.23
17,U7A G9A U10A U11A C12G C13A,1.09
18,U7G U8A G9A U10C U11G C12U C13U,1.12
19,U7C C12U C13G,1.28
20,U7C U8G G9A U10C C12A,1.18
21,G9A U10C C13A,1.08

row,Variant,aptazyme ON/OFF ratio
1,U7G U8G G9C U11C C12U,2.49
2,U7A U8C G9C U10G U11G C12A C13A,1.15
3,U7G U8G G9A U10A U11G C12A C13U,1.1
4,U7C U8G,1.35
5,U7C U8C,3.51
6,U7C U8A U10C U11A C12U C13A,1.16
7,U7C U10C U11A C13A,1.14
8,U7G U10C U11C C13U,1.05
9,U7A U8C G9A U10A U11C C12A C13A,1.14
10,G9U U10G U11C C12A C13G,1.29
11,U8C G9A C13U,1.43
12,U7A U8G C12U C13U,1.53
13,U7C U8C G9A U11G,1.62
14,U7C U8A G9U C12U,1.34
15,G9U U11G C12A C13G,1.32
16,U8A U10G U11G C12G C13G,1.06
17,U8A U10G U11G C12U C13G,1.28
18,U7G U8A G9U U10C U11A C12A C13A,1.14
19,U7G U8G G9C U10A C13U,1.03
20,U7G G9A U10A U11G C13G,1.13
21,U7A U8A G9C U10A U11C C12G C13A,1.18
